# Changes are numbered by the printed parent chain. Where no end group is shown, it is not given here. The star is where a group is joined. Biotin = O=C1N[C@H]2[C@H](CS[C@H]2CCCCC(=O)*)N1
# T1: Peptide A (human PAR-2), unbiotinylated (Human)
# T1 construct: also called Peptide A No Biotin
# T1 peptide: GTNRSSKGRSLIGKVDGT
# T2: Peptide A (human PAR-2), N-terminal biotinylated (Human, N-terminal biotin via G4S linker)
# T2 construct: also called Peptide A N-Term
# T2 peptide: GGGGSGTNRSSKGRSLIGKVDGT
# T3: Peptide B (human PAR-2), unbiotinylated (Human)
# T3 construct: also called Peptide B No Biotin
# T3 peptide: SLIGKVDGTSHVTG
# T4: Peptide B (human PAR-2), N-terminal biotinylated (Human)
# T4 construct: also called Peptide B N-Term
# T4 peptide: Biotin-GGGGSSLIGKVDGTSHVTG
# T5: Peptide B (human PAR-2), C-terminal biotinylated (Human, not fully specified)
# T5 construct: also called Peptide B C-Term
# T5 peptide: SLIGKVDGTSHVTGGGGGS-biotin
# T6: Peptide C (human PAR-2), N-terminal biotinylated (Human)
# T6 construct: also called Peptide C N-Term
# T6 peptide: Biotin-GGGGSSLIGKV
# T7: Peptide C (human PAR-2), C-terminal biotinylated (Human)
# T7 construct: also called Peptide C C-Term
# T7 peptide: SLIGKVGGGGS-biotin
# B1: H1M592N (antibody, V domains shown)
# VH: EVQLVESGGGLVQPGRSLRLSCAASGFTFDDYAMHWVRQAPGKGLEWVSGISWNSGSIGYADSVKGRFTISRDNAKNSLYLQMNSLRAEDTALYYCAKDRFPPYKYNSGGFSDAFEIWGQGTMVTVSS
# VL: not shown
# notes: chimeric: human variable, mouse constant domains
# B2: H1M613N (antibody, V domains shown)
# VH: B1 VH
# VL: not shown
# notes: as for B1
# B3: H2M611N (antibody, V domains shown)
# VH: EVQLLESGGGLVQPGGSLRLSCAASGFTFSSYAMTWVRQAPGKGLYWVSAISGSGGSAYYADSVKGRFTISRDNSKNTLYLQMNSLRAEDTAVYYCAKEGDSGYDLDYWGRGTLVTVSS
# VL: DIQMTQSPSSLSASVGDRVTITCRARQGISNYLAWLQQKPGKAPKSLIYAASSLQSGVPSKFSGSGSGTDFTLTISSLQPEDFATYYCQQYKSSPLTFGGGTKVEIK
# notes: as for B1
# B4: H1M615N (antibody, V domains shown)
# VH: EVQLVESGGGVVQPGRSLRLSCAASGFTFDDYTMHWVRQVPGKDLKWVSGITWNGGRKAYADSVKGRFTISRDNAKNSLFLQMNSLRAEDTAFYYCAKEDEAFDYWGQGTLVTVSS
# VL: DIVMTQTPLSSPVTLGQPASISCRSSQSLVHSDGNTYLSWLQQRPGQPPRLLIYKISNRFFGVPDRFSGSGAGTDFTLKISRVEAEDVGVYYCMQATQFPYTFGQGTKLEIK
# notes: as for B1
# B5: H1M595N (antibody, V domains shown)
# VH: EVQLVESGGGLVQPGGSLRLSCAASGFTFSSYDMHWVRQVTGKGLEWVSVIGTVGDTYYPGSLKGRFTISRENAKNSLYLQMNTLRAGDTAVYYCARTGAAAHSYYYGMDVWGQGTMVTVSS
# VL: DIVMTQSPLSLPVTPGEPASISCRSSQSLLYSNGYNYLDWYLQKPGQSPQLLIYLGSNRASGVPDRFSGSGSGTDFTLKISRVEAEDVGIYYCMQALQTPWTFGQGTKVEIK
# notes: as for B1
# B6: H1M590N (antibody, V domains shown)
# VH: EVQLVESGGGLVQPGRSLRLSCAASGFTFDDYAMHWVRQAPGKGLEWVSGITWNSGTMAYADSVKGRFTISRDNAKNSLYLQMNSLRAEDTALYYCAKENWAFDYWGQGTLVTVSS
# VL: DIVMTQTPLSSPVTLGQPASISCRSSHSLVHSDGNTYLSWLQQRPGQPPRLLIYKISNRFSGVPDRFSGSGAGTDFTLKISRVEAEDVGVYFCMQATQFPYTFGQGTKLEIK
# notes: as for B1
# B7: H2M609N (antibody, V domains shown)
# VH: B6 VH with T52S, T57S, M58K, A59G, Y60F, A88V, A102S
# VL: DIVMTQTPLSSPVTLGQPASISCRSSQSLVHSDGNIYLSWLQQRPGQPPRLLIYKISNRFSGVPDRFSGSGAGTDFTLKISRVEAEDVGIYYCMQASHFPYTFGQGTKLEIK
# notes: as for B1
# B8: H1M616N (antibody, V domains shown)
# VH: B6 VH with V12A, L20V, A23S, T28N, T52S, T57S, M58R, A59G, A97V, D104E
# VL: B7 VL with Q27H, N35S, I36T, I90L, S97T, H98Q
# notes: as for B1
# B9: H1M619N (antibody, V domains shown)
# VH: B6 VH with P14A, T52S, T57S, M58R, A59G, Y80H, N84Y, A102S
# VL: B7 VL with I36T, N58Y, E84A, A85T, I90V, S97T, H98Q, F99L
# notes: as for B1
# B10: H1M612N (antibody, V domains shown)
# VH: B6 VH with T57N, L111R, T113I
# VL: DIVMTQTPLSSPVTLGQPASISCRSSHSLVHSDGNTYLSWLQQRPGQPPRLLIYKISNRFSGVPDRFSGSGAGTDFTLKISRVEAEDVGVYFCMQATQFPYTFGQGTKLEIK
# notes: as for B1
# B11: H2M614N (antibody, V domains shown)
# VH: B6 VH with A40V, T57S, M58I, A59D, L93F, A97V, N100D, W101E
# VL: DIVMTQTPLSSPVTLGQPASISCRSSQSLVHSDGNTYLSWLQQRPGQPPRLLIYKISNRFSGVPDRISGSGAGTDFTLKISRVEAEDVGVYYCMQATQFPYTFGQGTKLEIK
# notes: as for B1
# B12: H3M620N (antibody, V domains shown)
# VH: EVQLVESGGNVVRPGGSLRLSCAASGFTFDDYGMTWVRQVPGKGLEWVSGINWNGGSTDYADSVKGRFTISRDNAKNSLYLQMNSLRAEDTALYYCARDKGFYGMDVWGQGTTVTVSS
# VL: DIVMTQSPDSLAVSLGERATINCKSSQNPLYNSNKKKYLAWYQQKPGQPPKLVIYWASTRESGVPDRFSGSGSGTDFTLTITSLQAEDVAVYYCQQYYSTPYTFGQGTKLEIK
# notes: as for B1
# Target: T1, Peptide A (human PAR-2), unbiotinylated
# Assay: peptide ELISA
# Description: (§1) Anti-PAR-2 antibodies were tested for their ability to bind to the PAR-2 peptides. Various PAR-2 Peptides (Table 3) were coated onto 96-well plates at a concentration of 2 μg/ml and incubated overnight followed by blocking in a suitable blocking agent for one hour. […] Purified anti-PAR-2 antibodies were added to the plate coated with PAR-2 peptides to a final concentration ranging from 0.2 to 2.0 μg/ml and incubated for one hour at room temperature. Detection of bound antibodies was determined with Horse-Radish Peroxidase (HRP) conjugated anti-mouse or human IgG (Jackson Immuno Research Lab, West Grove, Pa.) and developed by standard colorimetric response using tetramethylbenzidine (TMB) substrate. Absorbance was read at OD₄₅₀ for 0.1 second.
row,OD450,Binder
1,1 to 4 od,B1
2,1 to 4 od,B2
3,1 to 4 od,B3
4,1 to 4 od,B4
5,1 to 4 od,B5
6,1 to 4 od,B6
7,1 to 4 od,B7
8,1 to 4 od,B8
9,1 to 4 od,B9
10,1 to 4 od,B10
11,0.5 to 0.99 od,B11
12,1 to 4 od,B12

# Target: T2, Peptide A (human PAR-2), N-terminal …
# Assay: peptide ELISA
# Description: as §1
row,OD450,Binder
1,1 to 4 od,B1
2,1 to 4 od,B2
3,1 to 4 od,B3
4,1 to 4 od,B4
5,1 to 4 od,B5
6,1 to 4 od,B6
7,1 to 4 od,B7
8,1 to 4 od,B8
9,1 to 4 od,B9
10,1 to 4 od,B10
11,1 to 4 od,B11
12,0.5 to 0.99 od,B12

# Target: T8, Peptide A (human PAR-2), C-terminal biotinylated (Human, C-terminal biotin via G4S linker)
# T8 construct: also called Peptide A C-Term
# Assay: peptide ELISA
# Description: as §1
row,OD450,Binder
1,1 to 4 od,B3
2,1 to 4 od,B4
3,1 to 4 od,B5
4,1 to 4 od,B6
5,1 to 4 od,B7
6,1 to 4 od,B8
7,1 to 4 od,B9
8,1 to 4 od,B10
9,1 to 4 od,B11
10,1 to 4 od,B12

# Target: T3, Peptide B (human PAR-2), unbiotinylated
# Assay: peptide ELISA
# Description: as §1
row,OD450,Binder
1,1 to 4 od,B3
2,0 to 0.09 od,B4
3,0 to 0.09 od,B5
4,0 to 0.09 od,B6
5,0 to 0.09 od,B7
6,0 to 0.09 od,B8
7,0 to 0.09 od,B9
8,0 to 0.09 od,B10
9,0 to 0.09 od,B11
10,0 to 0.09 od,B12

# Target: T4, Peptide B (human PAR-2), N-terminal …
# Assay: peptide ELISA
# Description: as §1
row,OD450,Binder
1,0.5 to 0.99 od,B1
2,0.5 to 0.99 od,B2
3,1 to 4 od,B3
4,0 to 0.09 od,B4
5,0 to 0.09 od,B5
6,0 to 0.09 od,B6
7,0 to 0.09 od,B7
8,0 to 0.09 od,B8
9,0 to 0.09 od,B9
10,0 to 0.09 od,B10
11,0 to 0.09 od,B11
12,0 to 0.09 od,B12

# Target: T5, Peptide B (human PAR-2), C-terminal …
# Assay: peptide ELISA
# Description: as §1
row,OD450,Binder
1,1 to 4 od,B3
2,0 to 0.09 od,B4
3,0 to 0.09 od,B5
4,0 to 0.09 od,B6
5,0 to 0.09 od,B7
6,0 to 0.09 od,B8
7,0 to 0.09 od,B9
8,0 to 0.09 od,B10
9,0 to 0.09 od,B11
10,0 to 0.09 od,B12

# Target: T6, Peptide C (human PAR-2), N-terminal …
# Assay: peptide ELISA
# Description: as §1
row,OD450,Binder
1,1 to 4 od,B1
2,1 to 4 od,B2
3,0 to 0.09 od,B3
4,0 to 0.09 od,B4
5,0.5 to 0.99 od,B5
6,0 to 0.09 od,B6
7,0 to 0.09 od,B7
8,0 to 0.09 od,B8
9,0 to 0.09 od,B9
10,0 to 0.09 od,B10
11,0 to 0.09 od,B11
12,0 to 0.09 od,B12

# Target: T7, Peptide C (human PAR-2), C-terminal …
# Assay: peptide ELISA
# Description: as §1
row,OD450,Binder
1,0 to 0.09 od,B3
2,0 to 0.09 od,B4
3,0 to 0.09 od,B6
4,0 to 0.09 od,B7
5,0 to 0.09 od,B8
6,0 to 0.09 od,B9
7,0 to 0.09 od,B10
8,0 to 0.09 od,B11
9,0 to 0.09 od,B12

# Target: T1, Peptide A (human PAR-2), unbiotinylated
# Assay: SPR, antibody captured
# Description: (§2) Equilibrium dissociation constants (KD values) for antigen binding to selected purified PAR-2 antibodies were determined by surface kinetics using a real-time surface plasmon resonance biosensor assay. Antibody was captured on either a rabbit anti-mouse IgG polyclonal antibody (GE Healthcare, Piscataway, N.J.) surface or a goat anti-human IgG polyclonal antibody (Jackson Immuno Research Lab, West Grove, Pa.) surface created through direct amine chemical coupling to a BIACORE™ CM5 sensor chip to form a captured antibody surface. […] Antigen-antibody binding and dissociation were monitored in real time at room temperature. Kinetic analysis was performed to calculate KD and half-life of antigen/antibody complex dissociation (Table 10). For those antibodies where no T_{1/2} value is shown, steady state analysis was used to calculate the KD value. NB: no binding observed under current experimental conditions. ND: not determined.
Kd,T1/2,Binder
72.8 nM,4.1 min,B3

# Target: T3, Peptide B (human PAR-2), unbiotinylated
# Assay: SPR, antibody captured
# Description: as §2
Kd,T1/2,Binder
1090 nM,1.2 min,B3

# Target: T8, Peptide A (human PAR-2), C-terminal …
# Assay: SPR, peptide immobilized
# Description: (§3) In another series of experiments, equilibrium dissociation constants (KD values) for purified antibody binding to selected biotinylated and unbiotinylated forms of PAR-2 peptides were determined by surface kinetics using a real-time surface plasmon resonance biosensor assay. Neutravidin (Pierce, Rockford, Ill.) was covalently coupled to the surface of a Biacore™ C1 chip or CM5 chip using amine coupling chemistry. Biotinylated (N-Term or C-Term) PAR-2 peptides (Peptides A and B) were immobilized on the surface via the high affinity binding interaction between biotin and the amine coupled Neutravidin.
# (§4) In a first experiment using this format, varying concentrations (ranging from 5 to 100 μg/ml) of purified antibody were injected at a rate of 50 μl/min over a surface coated with immobilized peptide at low-density (<1RU) for 300 seconds. Antibody-peptide binding and dissociation was monitored in real time 25° C.
Kd,T1/2,Binder
1.27 nM,13 min,B6

# Target: T5, Peptide B (human PAR-2), C-terminal …
# Assay: SPR, peptide immobilized
# Description: as §3, §4
row,Binder,binding result
1,B6,no binding (tested: 5 to 100 ug/ml antibody)

# Target: T9, full length human PAR-2 (human, UniProt P55085 26-397)
# T9 construct: overexpressed on HEK293-derived 293/D9 cells; also called 293/D9/hPAR-2rec cells
# T9 sequence (P55085 26-397 G138A limits assumed): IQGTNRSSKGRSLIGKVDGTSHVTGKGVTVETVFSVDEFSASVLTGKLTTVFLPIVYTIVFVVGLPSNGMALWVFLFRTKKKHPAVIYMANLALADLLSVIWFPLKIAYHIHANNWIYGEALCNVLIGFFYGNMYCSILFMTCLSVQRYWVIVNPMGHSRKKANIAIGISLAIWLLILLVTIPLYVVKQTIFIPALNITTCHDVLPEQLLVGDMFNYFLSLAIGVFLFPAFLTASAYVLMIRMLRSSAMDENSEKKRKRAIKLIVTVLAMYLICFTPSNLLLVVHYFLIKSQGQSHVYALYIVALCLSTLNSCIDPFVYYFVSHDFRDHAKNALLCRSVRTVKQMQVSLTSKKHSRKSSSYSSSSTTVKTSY
# Assay: cell ELISA, 10 ug/ml antibody
# From the text: HEK293 cells were transfected with an NF-κB-luciferase-IRES-eGFP reporter plasmid. […] A clonal cell line, named D9, having low background levels of luciferase activity and high levels of eGFP when induced with IL-1β was made by a series of successive sorts of cell populations using flow cytometry. The 293/D9 cell line was then separately transfected with human PAR-2 or mouse PAR-2 to create the stable cell lines 293/D9/h PAR-2rec and 293/D9/m PAR-2rec, respectively.
# Binding of anti-PAR-2 antibodies to 293/D9/hPAR-2rec cells was determined by ELISA. 293/D9 and 293/D9/hPAR-2rec cells were plated at a density of 5×10⁴ cells/well in media and incubated overnight at 37° C. and 5% CO₂. Purified antibody was added to the cells to a final concentration of 10 μg/ml and incubated at room temperature for one hour. Cells were then fixed and washed before detection of bound antibodies with HRP conjugated anti-mouse IgG and developed by standard colorimetric response using TMB substrate. Absorbance was read at OD₄₅₀ for 0.1 second.
row,A450 ratio (293/D9/hPAR-2rec to 293/D9 cells),Binder
1,2.18,B4
2,1.81,B6
3,2.78,B8

# Target: T1, Peptide A (human PAR-2), unbiotinylated
# Assay: SPR, antibody captured, steady state
# Description: as §2
row,Kd,Binder
1,2100 nM,B1
2,2100 nM,B2
3,162 nM,B4
4,510 nM,B5
5,173 nM,B6
6,144 nM,B8
7,164 nM,B9
8,180 nM,B10
9,470 nM,B11
